Test results from the nanobody polyreactivity screen of Harvey et al. (2022).

Test: yeast display, Sf9 membrane polyspecificity reagent, FACS + sequencing; frameworks hold sequencing errors
Outline: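 Galactose induction of a Saccharomyces cerevisiae BJ5465 synthetic nanobody display library ran 36–48 hours. The cells were then stained for 1 hour at 4 °C with 10% biotinylated, detergent-solubilized Sf9 membrane reagent, pulled down on streptavidin microbeads and FACS-sorted into low and high (top ~1%) gates on expression and reagent-binding fluorescence. Labels for polyreactivity follow the gate of origin.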

| Sequence | polyreactivity (PSR sort gate) |
| --- | --- |
| QVQLVQSGGGLVQAGGSLRLSCAASGRTFRIYAMGWYRQAPWKEREFVAGITRSDGSTYYADSVKGRFTISRDNAKNTVYLQMISLKPEDTAVYYCNVEPYSHYRSTEDYWGQGTQVTVSS | high polyreactivity |
| QVQLVQSGGGLVQAGGSLRLSCAASGRTFYRNGMGWYREAPGKDREFVAAINYRGGSTNYADSVKGRFTITRDNAKITVYLQMNSLKPEDTAVYYCATRIFRAALRFDYWGQGTQVTVSS | high polyreactivity |
| QVQLVQSGGGLVQAGGSLRLSCAASGRTFYYAMGWYRQAPGKERELVARITRRGGSTYYADSVKGRFTISRDNAKNTVYLQMNSLKPEDTAVYYCNARWHRYLLATYGYWVQGTQVTVSS | high polyreactivity |
| QVQLVQSGGGLVQAGGSLRLSCAASGSIFTSYAMGWYRQAPGKERELVAAINGSGGSTFYADSVKGRFTISRDHAKNTVYLQMNSLNPEYTAVYYCYTVGPRGTTYDDWGQGSQVTVSS | low polyreactivity |
| QVQLVQSGGGLVQAGGSLRLSCAASGYILNPYAMGWYRPAPGKERELVAAITSGTITYYADSVKGRFTITRDNAKNTVYLQMNSLKPEDTAVYYCAADSWAHYESYDYWGQGTQVTVSS | low polyreactivity |
| QVQLVQSGGGLVQAGGSLRLSSAASGSTFWANAMGWYRQAPGKERELVAAISVRGGNTYYADSVKGRFTISRDNAKNTVYLQMNSLKPEDTAVYYCAARPISWTSYYDYWGQGTQVSVSS | high polyreactivity |
| QVQLVQSGGGLVQARGILRLSCPPSGINFWYNAMGWYSQAQGKERELVASISTGGRTYYADSVKGRFTFSRDNAKNTVYLQMNSLKPVDTAVYYCAAASRVGFLYYYWGQGSQVTVSS | low polyreactivity |
| QVQLVQSGGGLVQEGGSLRLSCYASGRIFSIYTLGWYRQAPGKERELVAAIRWSGGSTYYADSVKWRLTISRDNAKNTVYLQMNSLKPEDTAVYYCARQSVLGYRSYGPFPKYYYWGQGTQVTVSS | high polyreactivity |
| QVQLVQSGGGVVQAGGSLRLSCAASGRIFNTNAMGWYRHAPGKERELVAGITDSGDSTYYADSVKGRFTISRDNAKITVYLQMYSLKPEDSAVYYCATDPASPYIYDFWGLGTQVTVSS | low polyreactivity |
| QVQLVQTGRGLVQAGGSLRLICAASANIFYTNAMGWYRQAPGKERELVAAISGSGGRTYYADSVKGRFTISRDNAKNTVYLQMNSLKPEDTAVYYFNAVRRDYYDRTYGYWGQGTQVTVSS | low polyreactivity |
| QVQLVVSGAGLVQAGGSLRLSCAASGRNVVRNAMGWSRQAPGNEREWVAAITSGGRTYYAVSVKGRFTISRDNAKNTVYLQMTSLTPEDTAVYSCSTETRPHSVKNSPISLPDDYWGQGTQETVSS | low polyreactivity |
| QVQLVVSGGGLVQAGGSLRLSCAASGFIFYRYAMGWYRQAPGKEWELVAAISRSGGTTYYADSVKGRFTISRDNAKNTVYLQKNSLKPEDTAVYYCNVKRGTIGGYYYWGQGTQVTVSS | high polyreactivity |
| QVQLVVSGGGLVQAGGSLRLSCAASGNTFTKYAMGWYRQAPGKERELVAGITRGGSTNYADSVKGRFTISRDNAKNTVYLQMNSLIPEDTAVYYCNARPVYGSRFYSAVRMEYWGQATQVTVSS | low polyreactivity |
| QVQLVVSGGGLVQAGGSLRLSCAASGRTFRSYAMGWYRQEPGKERELVAAISDGGSTNYADSVKGRFTISRDNAKNTVYLQMNSLKPEDTAVYYCAAEFFFAVFRFYYWGQGTQVTVSS | low polyreactivity |
| QVQLVVSGGGLVQAGGSLRLSCAASGSIFAQNVMGWYRQAPGKERELVAAISYCGGTTYYADSVKGRFTISRDNAMNSVYLQMNSLKPEDTAVYYCAAEFGVYEYDYWGQGTQVTVSS | low polyreactivity |
| QVQLVVSGGGLVQAGGSLRLSCAASGSIFSRYTMGWYRVAPGKERELVAAITASGTRTYYADSVKGRFTISRDNAKNTVYLQMNSLKPEDTAVYYCNVVRGSRDVTYGYNYWGQGTQVTVSS | high polyreactivity |
| QVQLVVSGGGLVQAGGSLRLSCAASGSTVVTYAMGWYRQAPGKERELVAAISRSGTSTYYADSVKGRYTISRDNAKYTVYLHLPSRKPEDTAVYDCAAYGPRVNGEIGREYYYWGQGTQVTVSS | low polyreactivity |
| QVQLVVSGGGLVQAGGSLRLSFAASGFIFRYYGGGWYTPAPGKERELVAAITSTGRRYYADSVKGRFTISRDNAKNTVYLQMNSLKPEDTAVYYCAKAWLRWCEDYWGQGTQVTVSS | low polyreactivity |
| QVQLVVSGVGLVQAGGSLRLSCAASGRIFSYYAMGWYRQAPGKEREFVATNSGSGGSTYYADSVKGRFTISRDNAKNTVYLEMNSLKPEDTAVYYCKARSYSYWSNWRNAGSYDYWGQGTQVTVSS | high polyreactivity |
| QVQMQESGGGTVMAGGSLRLSCAASGTIFVRLDMGSYRQAPGKEREFVATIGSGSSTYYADSVKGSFTISRDNVNKSVYLQMNSLKPEDTAVYYCAVSAAEQCRDYYWDQGTQVTVSS | low polyreactivity |
| QVQMQESRGGLVQAGGSLRLSCAASGYISYLDFMGWYRQAPGKERELVAGITTGATTNYADSVKGRFTISRDNGKNIVYQQMNSLKPEDTAVYFCAVIGGDTRGHPYWGQGTQLTVSS | low polyreactivity |
| QVQPQESAGGLVQAGGSLLQSSAASAYIFPYYSMGWYRQAPGKERGLVACIAAGTTTNYADSVKGRFTISRDNAKNTVYLQMKSLKPEDAAVYYCAALKAFNTGHWYWGQGTQVTVSS | low polyreactivity |

| Sequence | polyreactivity (PSR sort gate) |
| --- | --- |
| QVQPQESGGGLVQAGGSLRLRCAASGTIFAFQTMGSYRQAPGKERELVASITYGSSTNYADSVKGRFTISRDNAKNTVYLQMNSLKPEDTAVFYCAVPQAQYYYDYWGQGTQVTVSS | high polyreactivity |
| QVQPVESGGGLVQAGGSLRLSCAASASTFYYYAMGWSRQAPGKERELVASITTGGGSTYYADSVKGRFTISRDNAKKTVYLQMNSLNPEDTAVYYCNAGRYGSNLEYWGQGTQVTVSS | low polyreactivity |
| QVQPVESGGGLVQAGGSLRLSCADSGSIIYYNAMGWYRQAPGKEREFVAAITSSGGSTYADSVKGRFTISRDNGKNTVYIQMNSMKPEDTAVYYCATVAHGLLSGSGYIYAYDYWGQGTQVTVSS | low polyreactivity |
| QVQQQESGGGLEQAGGSLRLSCAASGTIFQLTVMGRYRQAPGKERELVASIDYGGNTNYADSVKGRFTISRDNAKKTVYLQMNSLKPEDTAVYYCAASSDSWTTHPYWGQGTQVTVSS | low polyreactivity |
| QVQQQESGGGLVQAGGSLRLSCAASGNIFRFTRMGWYRQGPGQVREFVAGIGDGSTTYYADSVKGRFTISRDNAKNTVHLQMNSQKPEDTAVYSCAVGDSGFVHHPYWGQGTQVTVSS | high polyreactivity |
| QVQQQESGGGLVQAGGSLRLSCAASGTIFQLTVMGRYRQASGKERELVASIDYGGNTNYADSVKGRFTISRDNAKNTVYLQMNSLKPEDTAVYFCAASSDSWTTHPYWGQGTQVTVSS | low polyreactivity |
| QVQQQESGGGLVQASGSLRLSCAASGNIFPDYVMGWYRQGPGQEREFVANITGGSTTNYADSVKGRFSISRDNAKNTVYLQMNCLKQEDTAVYYCAVNFGTVVLYLYWGQGTQVTVSS | high polyreactivity |
| QVQQQESGGGQVQAGGSLRLSCAASGTIFLYAFLGRYRQAPGKERELVAAIDVGTTTNYADSVKGRFTIRRDNANNTVYLQMNSLKPEDTAVYYCAATLGYLDDLGYWGQGTQVTVSS | low polyreactivity |
| QVQQVESGGGLVQAGGSLRLSCAASGTFGYYAMGWYRQAPGKERELVAGITWSGGSTYYADSVKGRFTISRDNAKNTVYLQMNSLKPEDTAVYYCATSSYTGYWGQGTQVTVSS | low polyreactivity |
| QVQREESGGGLVQAGGSLRLSCPASGITFWGYVMGWYRQAPGKERELVAAISSSGGRTYYADSVKGRFTISRDNAKNTVYLQMNSMKPEDTAVYYCAARFLYANGDSVDYDYWGQGTQVTVSS | high polyreactivity |
| QVQRVESAAGLVQAGGSLRLSCAASGFIIVYYSMGWYRQAPGKERELVAAISRRGGSTYYADSVKGRFTISRDNAKNTVYLQMNSLKPEDTAVYYCNAVNVLAPSRGRRYDYWGQGTQVTVSS | high polyreactivity |
| QVQRVESAGGLVQAGVSLRLSCAASGITFASNTMGWYRQAPGKARELVAAITRGDNTYYADSVKGRFTISRDNAKNTVYLHMNSLKPEDTAVYYCATEGYEIQYEHDYWGEGTQVTVSS | low polyreactivity |
| QVQRVESAGRLVQAGGSLRLSCAPSGYTFYGYAMGWYRQAPGKESELVAAISGSGGSTYYADSVKGRFTMSRDNAKNTVYLQMNSLIPEDTAVYYCNKARYAIYRGDGYDYWGQGTEVTVSS | high polyreactivity |
| QVQRVESGGALVQAGGSLRLSCAASGSIIGINAMGWYRPAPGKERELVAAINGGGSTYYADSVKGRFTISRDNAKNTVYLQMHSLKPEDTAVYYCAAEWGTSWYDYRGQGTQVTVSS | low polyreactivity |
| QVQRVESGGGLFQAGGSLRLSCAASGSTFGYYAMGWYRQAPGKERELVPAISGSGTSTNYADSVKGRITISRDNAKNTVYLQMNSLKPEDTAVYYCATRYRYTGGGYYYRGQGTQVTVSS | low polyreactivity |
| QVQRVESGGGLVQAGGRLRLSCAASASTLYSYAMGWNRQAPGKEREFVATISQIGVRTYYADSVKGRFTISRDNAKNTVYLQMNSLKPEDTAVYYCAAGYRFTTYLVYNYWGQGTQVTVSS | high polyreactivity |
| QVQRVESGGGLVQAGGSHPLSCAASGITLRYYAMGWYRQAPGKERELVAAISGRGGGTYYADSVKGRFTISRDNAKNTVYLQMNSLKPEDTAVYYCNAVGQQQVEYEYWGQGTQVTVSS | high polyreactivity |
| QVQRVESGGGLVQAGGSHRLSCAASGSIFVVYTMGWYRPAPGKERELVAAITQNGGSSTYYADSVKGRFTISRDNAKNTVYLQMNSLKPEDTAVYYCNKDILSPVVRIFKYGYDMDYWGQGTQETVSS | low polyreactivity |
| QVQRVESGGGLVQAGGSLGLSCAASGFTFIKYAMGWYRQAPGKEREFVASITYRGGSTYYADSVKGRLTISRDNAKNTVYLQMNSLKPEDTAVYYCAAGGPGRRYRVDYWGQGTQVTVSS | high polyreactivity |
| QVQRVESGGGLVQAGGSLLLSCAPSGSIFSDNSMGWYRQAPGKERELVAAITSGGDTKYADSVKGRFTISRDNAKNTVYLQMNSLKPEDTAFYYCAAGIRYQASFDSWGQGTQVTVSS | low polyreactivity |
| QVQRVESGGGLVQAGGSLRISCAASGRTFRKYAMGWYRQARGKERELGAAMSWSGGSTYYANSVKGRFPISRDKPKNTVYLQMNSLKPEETAVYYCASDVDRFYTYKYDYWGQGTQVTVSS | low polyreactivity |
